The labels stand for the following.
B1: LINE1-full (parent)
chain: UACGUAGGUGGUUUUCCCCUGAUAGUGCUAAGGGGGCCUGGAAGUUUGGACUGGGCAGAGCUCAACACAGCGUGGCAAAGUGGCUGUGGCUAGACUGCCUCUCUGGAUUCCUCGUCACUCAGCAGGGCAUCUCUGAGAGAAAUGCC

The data set covers variants of B1. As to the kind of experiment: self-cleavage, relative activity (ratio to wild type); higher = more cleavage; in vitro, sequencing; the parent is a self-cleaving ribozyme.
Turning to UACGUAGGUGGUUUUCCCCUGAUAGUGCUAAGGGGGCCUGGAAGUUUGGACUGGGCAGAGCUCAACACAGCGUGGCAAAGUGGCUGUGGCUAGAAUGCCUCCCUGGAUUCCUCGUCACUCAGCAGGGCAUCUCUGAGAGAAAUGCC, the self-cleavage amounted to 0.11.

Take UACGUAGGUGGUUUUCCCCUGAUAGUGCUAAGGGGGCCUGGAAGUUUGGACUGGGCAGAGCUCAACACAGCGUGGCAAAGUGGCUGUGGCUAGUCUGCCUCUCUGGAUUCCUCGUCACUCAGCAGGGCAUCUCUGAGAGAAAUACC: the self-cleavage was 0.4. As for UACGUAGGUGGUUUUCCCCUGAUAGUGCUAAGGGGGCCUGGAAGUUUGGACUGGGCAGAGCUCAACACAGCGUGGCAAAGUGGCUGUGGCUAGUCUGCCUCUCUGGAUUCCUCGUCACUCAGCAGGGCAUCUCUGUGAGAAAUGCC, the self-cleavage came out at 0.29. The result for UACGUAGGUGGUUUUCCCCUGAUAGUGCUAAGGGGGCCUGGAAGUUUGGACUGGGCAGAGCUCAACACAGCGUGGCAAAGUGGCUGUGGCUAGAAUGCCUCUCUGGAUUCCUCGUCACUCAGCAGGGCAUCUCUGAGGGAAAUGCC reads 0.09; that for UACGUAGGUGGUUUUCCCCUGAUAGUGCUAAGGGGGCCUGGAAGUUUGGACUGGGCAGAGCUCAACACAGCGUGGCAAAGUGGCUGUGGCUAGAAUGCCUCUCUGGAUUCCUCGUCACUCUGCAGGGCAUCUCUGAGAGAAAUGCC, 0.05; that for UACGUAGGUGGUUUUCCCCUGAUAGUGCUAAGGGGGCCUGGAAGUUUGGACUGGGCAGAGCUCAACACAGCGUGGCAAAGUGGCUGUGGCUAGGCUGCCUCUCUGGAUUCCUCGUCACUCAGCAGGGCAUCUCUGAGAGAAACGCC, 0.43.

Consider UACGUAGGUGGUUUUCCCCUGAUAGUGCUAAGGGGGCCUGGAAGUUUGGACUGGGCAGAGCUCAACACAGCGUGGCAAAGUGGCUGUGGCUAGUCUGCCUCACUGGAUUCCUCGUCACUCAGCAGGGCAUCUCUGAGAGAAAUGCC, for which the self-cleavage is 0.33. With UACGUAGGUGGUUUUCCCCUGAUAGUGCUAAGGGGGCCUGGAAGUUUGGACUGGGCAGAGCUCAACACAGCGUGGCAAAGUGGCUGUGGCUAGUCUGCCUCUCUGGAUUCCCCGUCACUCAGCAGGGCAUCUCUGAGAGAAAUGCC, the self-cleavage is 0.37. The result for UACGUAGGUGGUUUUCCCCUGAUAGUGCUAAGGGGGCCUGGAAGUUUGGACUGGGCAGAGCUCAACACAGCGUGGCAAAGUGGCUGUGGCUAGUCUGCCUCUCUGGAUUCCACGUCACUCAGCAGGGCAUCUCUGAGAGAAAUGCC reads 0.31; that for UACGUAGGUGGUUUUCCCCUGAUAGUGCUAAGGGGGCCUGGAAGUUUGGACUGGGCAGAGCUCAACACAGCGUGGCAAAGUGGCUGUGGCUAGUCUGCCUCUCUGGAUUCCUCGUCACUGAGCAGGGCAUCUCUGAGAGAAAUGCC, 0.3; that for UACGUAGGUGGUUUUCCCCUGAUAGUGCUAAGGGGGCCUGGAAGUUUGGACUGGGCAGAGCUCAACACAGCGUGGCAAAGUGGCUGUGGCUAGUCUGCCUCUCUGGAUUCCUCGUCACUCAGCAGGGCAACUCUGAGAGAAAUGCC, 0.23. The result for UACGUAGGUGGUUUUCCCCUGAUAGUGCUAAGGGGGCCUGGAAGUUUGGACUGGGCAGAGCUCAACACAGCGUGGCAAAGUGGCUGUGGCUAGAAUGCCUCUCUGGAUUCCUCGUCACUCAGCAGGGCAUCUCUGAGAGAAGUGCC reads 0.08.

With UACGUAGGUGGUUUUCCCCUGAUAGUGCUAAGGGGGCCUGGAAGUUUGGACUGGGCAGAGCUCAACACAGCGUGGCAAAGUGGCUGUGGCUAGUCUGCCUCUCUGGAUUCCUCGUCACUCAGCAGGGCAUCUCCGAGAGAAAUGCC, the self-cleavage was found to be 0.32. The result for UACGUAGGUGGUUUUCCCCUGAUAGUGCUAAGGGGGCCUGGAAGUUUGGACUGGGCAGAGCUCAACACAGCGUGGCAAAGUGGCUGUGGCUAGUCUGCCUCUCUGGAUUCCUCGUCACUCAGCAGGGCAUCUCGGAGAGAAAUGCC reads 0.2. Consider UACGUAGGUGGUUUUCCCCUGAUAGUGCUAAGGGGGCCUGGAAGUUUGGACUGGGCAGAGCUCAACACAGCGUGGCAAAGUGGCUGUGGCUAGUCUGCCUCUCUGGAUUCCUCGUCACUCAGCAGGGCAUCUCAGAGAGAAAUGCC, for which the self-cleavage came out at 0.25. UACGUAGGUGGUUUUCCCCUGAUAGUGCUAAGGGGGCCUGGAAGUUUGGACUGGGCAGAGCUCAACACAGCGUGGCAAAGUGGCUGUGGCUAGUCUGCCUCUCUGGAUUCCUCGUCACUCAGCAGGGCAUCUCUGAGAGAAAAGCC: the self-cleavage came to 0.21. As to UACGUAGGUGGUUUUCCCCUGAUAGUGCUAAGGGGGCCUGGAAGUUUGGACUGGGCAGAGCUCAACACAGCGUGGCAAAGUGGCUGUGGCUAGUCUGCCUCUCUGGAUUCCUCGUCACUCAGCAGGGCAUCUCUGAGAGAAACGCC, the self-cleavage stood at 0.24.

Turning to UACGUAGGUGGUUUUCCCCUGAUAGUGCUAAGGGGGCCUGGAAGUUUGGACUGGGCAGAGCUCAACACAGCGUGGCAAAGUGGCUGUGGCUAGUCUGCCUCUCUGGAUUCCUCGUCACUCAGCAGGGCAUCCCUGAGAGAAAUGCC, the self-cleavage was determined as 0.52. With UACGUAGGUGGUUUUCCCCUGAUAGUGCUAAGGGGGCCUGGAAGUUUGGACUGGGCAGAGCUCAACACAGCGUGGCAAAGUGGCUGUGGCUAGAAUGCCUCUCUGGAUUCCUCGUCACUCAGCAGGGCAUCUCUGAGAGAAAUGCU, the self-cleavage is 0.08. UACGUAGGUGGUUUUCCCCUGAUAGUGCUAAGGGGGCCUGGAAGUUUGGACUGGGCAGAGCUCAACACAGCGUGGCAAAGUGGCUGUGGCUAGUCUGCCUCUCUGGAUUCCUCGUCACUCAGCAGGGCAUCUCUGAGAGUAAUGCC: the self-cleavage was 0.26.

Regarding UACGUAGGUGGUUUUCCCCUGAUAGUGCUAAGGGGGCCUGGAAGUUUGGACUGGGCAGAGCUCAACACAGCGUGGCAAAGUGGCUGUGGCUAGUCUGCCUCUCCGGAUUCCUCGUCACUCAGCAGGGCAUCUCUGAGAGAAAUGCC, the self-cleavage is 0.55.

As to UACGUAGGUGGUUUUCCCCUGAUAGUGCUAAGGGGGCCUGGAAGUUUGGACUGGGCAGAGCUCAACACAGCGUGGCAAAGUGGCUGUGGCUAGUCUGCCUCUCAGGAUUCCUCGUCACUCAGCAGGGCAUCUCUGAGAGAAAUGCC, the self-cleavage came to 0.19. On to UACGUAGGUGGUUUUCCCCUGAUAGUGCUAAGGGGGCCUGGAAGUUUGGACUGGGCAGAGCUCAACACAGCGUGGCAAAGUGGCUGUGGCUAGUCUGCCCCUCUGGAUUCCUCGUCACUCAGCAGGGCAUCUCUGAGAGAAAUGCC, for which the self-cleavage was determined as 0.33. The result for UACGUAGGUGGUUUUCCCCUGAUAGUGCUAAGGGGGCCUGGAAGUUUGGACUGGGCAGAGCUCAACACAGCGUGGCAAAGUGGCUGUGGCUAGUCUGCCUCUCUGGAUUCCUCGUCACUCAGCAGGGCAUUUCUGAGAGAAAUGCC reads 0.29; that for UACGUAGGUGGUUUUCCCCUGAUAGUGCUAAGGGGGCCUGGAAGUUUGGACUGGGCAGAGCUCAACACAGCGUGGCAAAGUGGCUGUGGCUAGGCUGCCUCUCUGGAUUCCUCGUCACUCAGCAGGGCAUCUCAGAGAGAAAUGCC, 0.21. Take UACGUAGGUGGUUUUCCCCUGAUAGUGCUAAGGGGGCCUGGAAGUUUGGACUGGGCAGAGCUCAACACAGCGUGGCAAAGUGGCUGUGGCUAGGCUGCCUCUCUGGAUUCCUCGUCACUCAGCAGGGCAUCUCCGAGAGAAAUGCC: the self-cleavage turned out to be 0.44. As to UACGUAGGUGGUUUUCCCCUGAUAGUGCUAAGGGGGCCUGGAAGUUUGGACUGGGCAGAGCUCAACACAGCGUGGCAAAGUGGCUGUGGCUAGUCUGCCUCUCUGGAUCCCUCGUCACUCAGCAGGGCAUCUCUGAGAGAAAUGCC, the self-cleavage is 0.22. For the variant UACGUAGGUGGUUUUCCCCUGAUAGUGCUAAGGGGGCCUGGAAGUUUGGACUGGGCAGAGCUCAACACAGCGUGGCAAAGUGGCUGUGGCUAGUCUGCCUCUCUGGAUUCCUCGUCACUCAGCAGGGCAUCUCUGAGAGAUAUGCC, the self-cleavage is 0.42. The result for UACGUAGGUGGUUUUCCCCUGAUAGUGCUAAGGGGGCCUGGAAGUUUGGACUGGGCAGAGCUCAACACAGCGUGGCAAAGUGGCUGUGGCUAGUCUGCCUCUCUGGAUUCCUCGUCACUCAGCAGGGCAUCUCUGAGAGAGAUGCC reads 0.37; that for UACGUAGGUGGUUUUCCCCUGAUAGUGCUAAGGGGGCCUGGAAGUUUGGACUGGGCAGAGCUCAACACAGCGUGGCAAAGUGGCUGUGGCUAGUCUGCCUUUCUGGAUUCCUCGUCACUCAGCAGGGCAUCUCUGAGAGAAAUGCC, 0.31. Consider UACGUAGGUGGUUUUCCCCUGAUAGUGCUAAGGGGGCCUGGAAGUUUGGACUGGGCAGAGCUCAACACAGCGUGGCAAAGUGGCUGUGGCUAGUCUGCCUCUCUGGAUUCCUCGUCACUCAGCAGGGCAUCUCUGAGAGAAAUGCC, for which the self-cleavage is 0.29. The result for UACGUAGGUGGUUUUCCCCUGAUAGUGCUAAGGGGGCCUGGAAGUUUGGACUGGGCAGAGCUCAACACAGCGUGGCAAAGUGGCUGUGGCUAGAAUGCCUCUCUGGAUUCCUCGUCACUCAGCAGGGCGUCUCUGAGAGAAAUGCC reads 0.09; that for UACGUAGGUGGUUUUCCCCUGAUAGUGCUAAGGGGGCCUGGAAGUUUGGACUGGGCAGAGCUCAACACAGCGUGGCAAAGUGGCUGUGGCUAGUCUGCCUCUCUGGUUUCCUCGUCACUCAGCAGGGCAUCUCUGAGAGAAAUGCC, 0.32; that for UACGUAGGUGGUUUUCCCCUGAUAGUGCUAAGGGGGCCUGGAAGUUUGGACUGGGCAGAGCUCAACACAGCGUGGCAAAGUGGCUGUGGCUAGUCUGCCUCUCUGGAUUCCUCGUCACUCAGCAGGGCAUCUCUGAGGGAAAUGCC, 0.32. The result for UACGUAGGUGGUUUUCCCCUGAUAGUGCUAAGGGGGCCUGGAAGUUUGGACUGGGCAGAGCUCAACACAGCGUGGCAAAGUGGCUGUGGCUAGUCUGCCUCUCUGGAUUCCUCGCCACUCAGCAGGGCAUCUCUGAGAGAAAUGCC reads 0.45; that for UACGUAGGUGGUUUUCCCCUGAUAGUGCUAAGGGGGCCUGGAAGUUUGGACUGGGCAGAGCUCAACACAGCGUGGCAAAGUGGCUGUGGCUAGUCUGCCUCUCUGGAUUCCUCGACACUCAGCAGGGCAUCUCUGAGAGAAAUGCC, 0.31. The result for UACGUAGGUGGUUUUCCCCUGAUAGUGCUAAGGGGGCCUGGAAGUUUGGACUGGGCAGAGCUCAACACAGCGUGGCAAAGUGGCUGUGGCUAGAAUGCCUCUCUGGAUUCCUCGUCACUCAGCAGGGCAUCUCUGUGAGAAAUGCC reads 0.05.

Turning to UACGUAGGUGGUUUUCCCCUGAUAGUGCUAAGGGGGCCUGGAAGUUUGGACUGGGCAGAGCUCAACACAGCGUGGCAAAGUGGCUGUGGCUAGUCUGCCUCUCUGGAUUCCUCGUCACCCAGCAGGGCAUCUCUGAGAGAAAUGCC, the self-cleavage is 0.28. For UACGUAGGUGGUUUUCCCCUGAUAGUGCUAAGGGGGCCUGGAAGUUUGGACUGGGCAGAGCUCAACACAGCGUGGCAAAGUGGCUGUGGCUAGUCUGCCUCUCUGGAUUCCUCGUUACUCAGCAGGGCAUCUCUGAGAGAAAUGCC, the self-cleavage is 0.33.

For the origin of these results see the RNAGym collection of RNA variant scans (doi:10.7554/elife.90254).
